The supplement of paper PMC10567573

B1: CLCN6 (parent)
chain: ILRSQLVTLLVRGVCYSESQSSAS
B2: USP39 (parent)
chain: FVEKNPTIVNFPITNVDLREYLSE

Variants of: B1
Assay: protein stability index of a GFP-peptide fusion (GPS, HEK-293T) (PSI 1-6); higher = more stable
Conditions: c terminus: a fixed tail appended
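Also: lentivirally expressed fusions sorted by FACS into six bins by GFP to DsRed ratio, PSI derived from sequencing read proportions per bin multiplied by bin number.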

Protein stability index: each site, then its substitutions
T8: L 1.83; Y 2.21; W 2.28; C 3.51; G 2.01; S 2.29; K 2.88; V 2.62; R 2.81; N 2.15; P 2.12; H 2.18; E 3.03; M 2.8
E18: M 2.09; T 4.5; K 5.27; A 2.15; D 2.19; W 2.86; R 2.1; I 3.81; L 2.71; G 3.04; N 3.67; Q 2.09; Y 2.54; F 5.28; P 3.08; H 2.13
L9: N 1.59; M 2.5; T 2.92; K 1.99; E 1.94; Q 1.69; C 3.61; A 3.4; D 1.77; H 1.39; W 2.83; F 4.09; S 1.6; R 1.6; G 1.8; P 2.21
S4: H 3.41; V 2.58; L 2.56; Y 2.3; N 2.54; I 3.85; E 3.85; W 3.61; T 2.68; K 2.19; M 2.78; D 2.21
Y16: S 2.22; D 2.09; P 3.6; V 2.94; L 3.45; I 2.94; R 3.34; E 1.94; N 2.37; K 1.32; T 3.87; H 2.77; A 3.1; W 2.61; C 2.31
S17: N 3.71; H 3; P 2.5; Y 2.78; D 2.43; E 2.11; Q 1.98; T 2.24; K 2.16; A 2.45; R 2.36; G 2.54; L 4.34; F 2.25; I 3.39
L6: D 1.55; R 2.67; M 1.98; W 3.18; E 1.88; Y 2.02; Q 1.66; F 2.41; A 2.2; S 1.42; T 2; N 1.76; K 2.08; I 2.86; P 2.04; H 2.17; V 1.64; C 3.02; G 2.86
Q20: L 2.77; E 3.06; G 3.74; D 1.56; I 1.93; C 4.15; A 4.07; V 2.68; K 4.02; T 1.8; F 2.4; W 2.38; Y 3.72; H 2.27
S22: D 1.44; A 1.76; H 3.54; F 4.37
V11: H 2.78; W 2.92; M 3.46; R 2.01; Q 2; A 2.77; G 2.39; Y 2.19; N 3.1; E 1.54; L 4.2; D 2.02; K 2; S 1.78; P 2.1; C 2.1; T 2.8
R12: L 3.03; P 2.67; W 2.29; V 3.56; H 4.29; I 2.68; K 3.37; T 2.56; S 3.78; D 2; N 1.67; A 2.38
I1: W 3.34; A 3.79; F 3.23; M 3.86; P 2.04; S 3.03; C 2.09; L 3.03; R 2.09; D 3.23; T 2.87; H 1.82; G 2.2; K 3.63
L10: G 1.92; S 1.31; C 2.21; P 2.52; R 2.14; V 1.92; N 2.49; K 2.05; M 2.93; W 3.87; A 1.07; E 2.53; Q 1.72; H 2.07; I 2.14; T 2.46; Y 2.23; D 1.8
G13: H 3.18; V 3.06; D 3.12; S 2.89; W 1.7; F 4.5; E 1.72; N 3.53; Q 3.06; I 2.7; L 2.53; R 3.25; P 2.69
V14: T 3.29; M 1.59; Q 3.26; W 2.82; K 2.87; F 2.46; R 2.67; E 1.47; G 2.1; S 2.76; I 2.79; N 1.57; H 2.01
C15: N 1.57; P 2.23; G 3.11; V 5.04; K 1.13; I 3.23; H 1.73; D 1.89; F 4.46; A 3.2; Y 4.15; R 3.44
L2: E 1.93; Y 3.62; K 2.42; M 3.88; P 2.01; C 3.49; F 2.44; Q 2.62; G 2.64; D 1.66; N 2.06; I 3.02; R 1.95; S 3.23; H 1.3
V7: N 1.99; Q 2.43; R 2.57; Y 3.04; D 2.45; M 2.25; G 1.75; C 2.66; S 2.18; P 1.98; A 2.81; W 1.96; K 2.23; H 2.63; I 2.83; T 2.46; L 3.31; E 2.37
S21: W 3.14; E 4.5; L 2.14; F 2.54; A 3.29; M 2.12; K 2.66; N 2.81; P 1.34; Y 2.89; I 2.59
R3: I 3.78; W 3.08; A 2.34; Y 2.72; V 2.67; C 3.38; K 3.85; Q 3.3; M 2.62; P 2.36
S19: L 3.29; D 2.21; G 1.57; H 3.62; F 3.38; T 4.83; M 3.15; C 3.23; P 1.82; A 4.08; Q 1.79; W 2.92; Y 2.44
Q5: C 3.81; Y 3.81; M 3.17; W 1.44; D 2.31; K 2.79; P 2.72; F 2.23; A 1.97; S 3.4; E 3.8; T 2.06; N 3.29; V 2.98

Variants of: B2
Assay: as above
Conditions: c terminus: a fixed tail appended

Protein stability index, by site and new letter:
E24: Q 2.04; L 2.27; F 2.02; C 2.11; K 1.84; S 1.88; G 2.14; I 1.64; Y 1.84; A 2.19; W 1.93; P 2.1; T 1.78; N 2.24; R 1.53; D 1.37; H 2.5; M 1.59
S23: L 1.11; V 1.77; I 3.78; M 2; T 1.06; R 2.02; P 2.13; N 1.65; Y 4.51; K 2.59; Q 1.78
